In patent US20250295734A1, “ANTICOAGULANT PROTEINS AND THEIR USE FOR TREATING DISEASES ASSOCIATED WITH THE ACTIVATION OF NEUTROPHILS” (BIOXODES, priority 2018, published 2025):
Where “and” joins values, the source holds several entries; their conditions need not be identical. Equal values may be shown once. Entries after “also recorded” stand apart in the source; their conditions may differ.

Tests used:
human washed platelets = assay: In vitro platelet aggregation assay; format: cell-based
Experimental: Blood from healthy human donors, who had not taken anti-platelet agents within the 15 days prior to collection, was collected in citrated tubes and centrifuged for 13 min at 200 g. The platelet-rich plasma was collected and centrifuged for 13 min at 900 g in Tyrode buffer (138 mM NaCl, 2.9 mM KCl, 12 mM NaHCO3, 5.5 mM glucose, 1.8 mM CaCl2 and 0.4 mM MgCl2, pH 7.4) containing 0.2% BSA, apyrase 0.02 U/mL and PGI2 500 nM. Washed platelets were resuspended in the Tyrode/BSA 0.2%/apyrase/PGI2 solution and centrifuged at 900 g for 13 min. Platelets were resuspended in a Tyrode/BSA 0.2% solution at a concentration of 3.10^8 platelets/mL. Platelets were kept at 37° C. for 30 min in a solution containing […]. Next, platelets were incubated at 37° C. under agitation for 5 to 10 minutes in an aggregometer APACT 4004 with ADP (adenosine diphosphate), TRAP (Thrombin Receptor-Activating Peptide) and/or Ir-CPI.
The effect of Ir-CPI on platelet aggregation was assessed in vitro by using isolated human washed platelets (n=1).

[1] = system: neutrophils isolated from the bone marrow of femurs of mice; assay: In vitro NETosis assay; format: cell-based, mice (C57BL/6); conditions: PMNs primed with TNFα, activated with PAF
Experimental: Neutrophils were isolated from the bone marrow of femurs of mice (C57BL/6) as previously described (Hu 2012) using FR-1-coupled magnetic beads (anti-Ly6G Microbead Kit, Miltenyi Biotec).
Cells were harvested, centrifugated and incubated during 30 min with or without 2 ng/ml of TNFα in Hanks solution (Gibco). Neutrophils were seeded on slides coated with poly-L-lysine and incubated at 37° C. for 1 h in Hanks solution. Next, neutrophils were activated with or without 25 μM of platelet-activating factor (PAF)±Ir-CPI (0.65 or 2 μM) in Hanks solution (3 h at 37° C.). NET formation was assessed by immunofluorescence (fluorescent microscope from Leica) after fixation of neutrophils with 4% PAF (paraformaldehyde) and fluorescent labelling of citrullinated histones (H3 antibody) and nuclei (Hoechst). Processing and analysis of images was performed using the FIJI software.
Percentage of NETosis (median) was presented for 5 independent experiments. A Wilcoxon test was used for statistical analysis (ns: not significant; *p<0.05; **p<0.01; ***p<0.001). […]

[2] = system: thrombin generation induced by TF (extrinsic pathway activator); conditions: induced by low concentration of TF (5 pM); cited from earlier work
FXIa = FXIa (Homo sapiens, UniProt P03951); conditions: cited from earlier work
FXIa, sequence (P03951 19-387 limits assumed): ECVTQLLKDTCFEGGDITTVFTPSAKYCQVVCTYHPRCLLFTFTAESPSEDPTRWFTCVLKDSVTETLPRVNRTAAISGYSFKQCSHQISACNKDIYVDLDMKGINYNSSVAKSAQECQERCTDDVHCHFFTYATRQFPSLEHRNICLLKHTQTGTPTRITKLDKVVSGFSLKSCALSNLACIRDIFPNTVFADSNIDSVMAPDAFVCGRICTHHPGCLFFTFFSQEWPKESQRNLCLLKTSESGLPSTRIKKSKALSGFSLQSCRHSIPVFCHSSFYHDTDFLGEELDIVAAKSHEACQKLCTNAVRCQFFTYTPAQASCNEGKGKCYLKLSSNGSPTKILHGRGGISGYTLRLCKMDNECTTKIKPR
FXIa, sequence (P03951 388-625 limits assumed): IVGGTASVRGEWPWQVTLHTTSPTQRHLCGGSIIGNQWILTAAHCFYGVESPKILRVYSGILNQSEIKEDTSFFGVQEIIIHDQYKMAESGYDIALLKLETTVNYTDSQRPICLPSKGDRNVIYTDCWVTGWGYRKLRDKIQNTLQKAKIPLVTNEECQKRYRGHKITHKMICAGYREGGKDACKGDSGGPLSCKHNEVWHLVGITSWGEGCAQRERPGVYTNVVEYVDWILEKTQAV

kallikrein = kallikrein (Homo sapiens, UniProt P03952); conditions: cited from earlier work
kallikrein, sequence (P03952 20-390 limits assumed): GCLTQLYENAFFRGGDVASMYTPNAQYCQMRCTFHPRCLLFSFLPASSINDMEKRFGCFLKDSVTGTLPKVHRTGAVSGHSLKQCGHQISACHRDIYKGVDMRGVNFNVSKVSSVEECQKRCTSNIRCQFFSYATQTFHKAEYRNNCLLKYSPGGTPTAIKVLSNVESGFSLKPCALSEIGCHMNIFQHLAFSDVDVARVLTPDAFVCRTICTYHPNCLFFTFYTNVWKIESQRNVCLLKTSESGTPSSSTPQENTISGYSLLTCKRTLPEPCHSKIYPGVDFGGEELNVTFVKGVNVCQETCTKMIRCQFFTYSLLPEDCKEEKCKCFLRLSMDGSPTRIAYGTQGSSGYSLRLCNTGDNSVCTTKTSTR
kallikrein, sequence (P03952 391-638 limits assumed): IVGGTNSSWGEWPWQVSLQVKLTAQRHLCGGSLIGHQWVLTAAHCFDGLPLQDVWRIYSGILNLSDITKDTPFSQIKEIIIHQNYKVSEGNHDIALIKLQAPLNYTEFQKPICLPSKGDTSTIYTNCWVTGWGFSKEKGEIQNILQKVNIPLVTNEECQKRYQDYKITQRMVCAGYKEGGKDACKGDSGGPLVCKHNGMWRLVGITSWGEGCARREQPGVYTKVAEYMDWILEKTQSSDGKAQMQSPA

FXII zymogen = molecular target: T1, FXII zymogen (Homo sapiens, UniProt P00748); conditions: cited from earlier work
T1 sequence (P00748 20-615): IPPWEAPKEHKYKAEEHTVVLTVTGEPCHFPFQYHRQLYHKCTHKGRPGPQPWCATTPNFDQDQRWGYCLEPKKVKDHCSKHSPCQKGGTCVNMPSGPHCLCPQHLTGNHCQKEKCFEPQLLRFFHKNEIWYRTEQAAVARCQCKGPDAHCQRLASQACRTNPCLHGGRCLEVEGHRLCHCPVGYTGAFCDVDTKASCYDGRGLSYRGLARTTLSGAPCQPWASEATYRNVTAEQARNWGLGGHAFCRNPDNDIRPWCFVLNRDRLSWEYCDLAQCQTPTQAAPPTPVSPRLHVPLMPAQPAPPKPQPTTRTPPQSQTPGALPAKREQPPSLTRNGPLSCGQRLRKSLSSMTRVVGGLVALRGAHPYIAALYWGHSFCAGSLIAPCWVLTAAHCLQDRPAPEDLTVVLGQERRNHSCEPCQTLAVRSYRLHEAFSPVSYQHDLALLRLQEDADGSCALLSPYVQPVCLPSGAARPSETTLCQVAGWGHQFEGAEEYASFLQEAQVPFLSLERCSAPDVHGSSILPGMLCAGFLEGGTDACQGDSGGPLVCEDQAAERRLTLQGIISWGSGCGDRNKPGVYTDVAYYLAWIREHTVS

[3] = Ir-CPI 500 μg/100 μL injected alone and then TRAP 20 μM at about 230 sec
[4] = TRAP 20 μM + Ir-CPI 500 μg/100 μL injected together
[5] = agent alone (TRAP 20 μM, ADP 20 μM or Ir-CPI 500 μg/100 μL), n=1

B1: Ir-CPI: Ixodes ricinus salivary gland polypeptide, contact phase inhibitor, MW=7660 Da; sequence SEQ ID NO: 1 or SEQ ID NO: 2 (protein)
chain: ANHKGRGRPAKCKLPPDDGPCRARIPSYYFDRKTKTCKEFMYGGCEGNENNFENITTCQEECRAKKV
- Aggregation Latency (human washed platelets; [3]): 231.2 s
- Aggregation Max (human washed platelets; [3]): 73.5%
- Aggregation Slope (human washed platelets; [3]): 31.1 %/min
- activation of platelet aggregation (human washed platelets; Ir-CPI alone added to washed platelets): did not activate platelet aggregation
- effect on TRAP-induced platelet aggregation (human washed platelets; Ir-CPI and TRAP, compared to TRAP alone): did not significantly modify platelet aggregation; also recorded: does not inhibit platelet aggregation
- Aggregation Latency (human washed platelets; [4]): 98.6 s
- Aggregation Max (human washed platelets; [4]): 71.7% and 71.8%
- Aggregation Slope (human washed platelets; [4]): 35.1 %/min
- Aggregation Latency (human washed platelets; [5]): 70.0 s
- Aggregation Max (human washed platelets; [5]): 4.1%
- Aggregation Slope (human washed platelets; [5]): 16.2 %/min
- percentage of NET formation ([1]; Ir-CPI 0.65 μM, *p<0.05 vs TNFα and PAF): significant reduction
- percentage of NET formation ([1]; Ir-CPI 2 μM, ***p<0.001 vs TNFα and PAF): significant reduction
- thrombin generation [2]: quite inactive
- binding to FXIa (FXIa): binds
- binding to kallikrein (kallikrein): binds
- binding to FXII zymogen (FXII zymogen): but not to their zymogen forms; also recorded: unable to bind directly
